From the supplement of paper PMC10724198 come the findings set out here.

The subject of series [1] is Saccharomyces cerevisiae. The series is described as follows: protein stability index of tFT-peptide fusion in wild type (PSI (0-1 scale)); higher = more stable (slower turnover). To be noted: genetic background: wild type.
Series [2] concerns Saccharomyces cerevisiae. The series is described as follows: protein stability index of tFT-peptide fusion in deletion strain of DOA10 (PSI (0-1 scale)); higher = more stable (slower turnover). The protocol:
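MPS profiling in S. cerevisiae of two library types built from selected 12-aa C-degron peptides (IN1, IN2, LN1, LN3, VN2, R1-R5, W1-W3, Atg1 and Rpa12 C-termini): saturation mutagenesis libraries and C-terminal +1 capping libraries (13 aa). Each peptide is fused to the C-terminus of a sfGFP-mCherry timer, after a GGGS linker. Cells are FACS-sorted into 8 mCherry/sfGFP bins and sequenced. PSI runs from 0 (unstable) to 1 (stable), measured once in wild type and in the das1Δ or doa10Δ background.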
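Wherever protein stability index of tFT-peptide fusion in deletion strain of DOA10 is given: PSI per variant is the weighted mean of its sequencing read distribution over the sorted stability bins, counting only variants with over 10 reads summed across bins.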
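Wherever protein stability index of tFT-peptide fusion in wild type is given: PSI derived as read-weighted mean over the 8 sorting bins, only variants exceeding 10 total reads kept, mCherry placed adjacent to the peptide and sfGFP distal.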

Regarding RSLRVLLPLYFRD, the protein stability index with Saccharomyces cerevisiae [1] stood at 0.346; in the series with Saccharomyces cerevisiae [2] it was 0.647.

Regarding RSLRVLLPLYFRK, the protein stability index in the series on Saccharomyces cerevisiae [1] was 0.293; in the series on Saccharomyces cerevisiae [2], 0.593.

Consider RSLRVLLPLYFRL, for which the protein stability index stood at 0.194 in the series with Saccharomyces cerevisiae [1] and 0.496 with Saccharomyces cerevisiae [2].

RSLRVLLPLYFY: the protein stability index with Saccharomyces cerevisiae [1] is 0.263; with Saccharomyces cerevisiae [2], 0.435.

Turning to RSLRVLLPLYNR, the figures for the protein stability index in the series with Saccharomyces cerevisiae [1] and in the series with Saccharomyces cerevisiae [2] were 0.623 and 0.666, respectively.

Turning to RSLRVLLPPYFR, the protein stability index turned out to be 0.658 in the series on Saccharomyces cerevisiae [1] and 0.689 in the series on Saccharomyces cerevisiae [2].

Regarding RSLRVLLPQYFR, the protein stability index with Saccharomyces cerevisiae [1] turned out to be 0.642; with Saccharomyces cerevisiae [2] it was 0.689.

RSLRVLLPYYFR: the protein stability index in the series with Saccharomyces cerevisiae [1] was found to be 0.545; in the series on Saccharomyces cerevisiae [2], 0.678.

For the sequence RSLRVNLPLYFR, the protein stability index worked out at 0.18 in the series on Saccharomyces cerevisiae [1] and 0.672 in the series on Saccharomyces cerevisiae [2].

Take RSLRVPLPLYFR: the protein stability index was determined as 0.113 in the series with Saccharomyces cerevisiae [1] and 0.687 with Saccharomyces cerevisiae [2].

For RSYRVLLPLYFR, the protein stability index in the series on Saccharomyces cerevisiae [1] came out at 0.217; in the series with Saccharomyces cerevisiae [2], 0.637.

With RVDRLDAIYFRI, the protein stability index with Saccharomyces cerevisiae [1] stood at 0.559; with Saccharomyces cerevisiae [2], 0.639.

In the case of RVHRLDAIYFRI, the values for the protein stability index with Saccharomyces cerevisiae [1] and in the series on Saccharomyces cerevisiae [2] were 0.438 and 0.659, respectively.

Consider RVNRLDAIYFRI, for which the protein stability index with Saccharomyces cerevisiae [1] was 0.48; in the series with Saccharomyces cerevisiae [2], 0.659.

RVRRLDAIYFRI: the values for the protein stability index in the series on Saccharomyces cerevisiae [1] and in the series on Saccharomyces cerevisiae [2] were 0.385 and 0.641, respectively.

With RVTCLDAIYFRI, the protein stability index stood at 0.477 in the series with Saccharomyces cerevisiae [1] and 0.655 in the series on Saccharomyces cerevisiae [2].

For RVTRCDAIYFRI, the values for the protein stability index in the series with Saccharomyces cerevisiae [1] and in the series on Saccharomyces cerevisiae [2] were 0.467 and 0.677, respectively.

As to RVTRLDACYFRI, the protein stability index in the series on Saccharomyces cerevisiae [1] amounted to 0.532; in the series with Saccharomyces cerevisiae [2], 0.707.

As to RVTRLDAILFRI, the protein stability index in the series with Saccharomyces cerevisiae [1] is 0.453; in the series on Saccharomyces cerevisiae [2], 0.705.

Regarding RVTRLDAIYFKI, the protein stability index in the series on Saccharomyces cerevisiae [1] amounted to 0.352; with Saccharomyces cerevisiae [2] it was 0.595.

Take RVTRLDAIYFRA: the protein stability index was found to be 0.608 in the series on Saccharomyces cerevisiae [1] and 0.697 with Saccharomyces cerevisiae [2].

As to RVTRLDAIYFRIA, the protein stability index with Saccharomyces cerevisiae [1] came out at 0.0756; with Saccharomyces cerevisiae [2], 0.136.

In the case of RVTRLDAIYFRII, the protein stability index in the series on Saccharomyces cerevisiae [1] worked out at 0.0611; in the series on Saccharomyces cerevisiae [2], 0.127.

For the sequence RVTRLDAKYFRI, the protein stability index is 0.673 with Saccharomyces cerevisiae [1] and 0.709 in the series with Saccharomyces cerevisiae [2].

In the case of RVTRLDAMYFRI, the protein stability index came to 0.549 with Saccharomyces cerevisiae [1] and 0.698 with Saccharomyces cerevisiae [2].

Turning to RVTRLDARYFRI, the protein stability index in the series on Saccharomyces cerevisiae [1] worked out at 0.667; in the series on Saccharomyces cerevisiae [2], 0.718.

Turning to RVTRLEAIYFRI, the protein stability index was found to be 0.268 with Saccharomyces cerevisiae [1] and 0.62 with Saccharomyces cerevisiae [2].

With RVTRLHAIYFRI, the protein stability index came to 0.172 in the series on Saccharomyces cerevisiae [1] and 0.372 with Saccharomyces cerevisiae [2].

As for RVTRLIAIYFRI, the results for the protein stability index with Saccharomyces cerevisiae [1] and in the series with Saccharomyces cerevisiae [2] were 0.168 and 0.348, respectively.

With RVTRLKAIYFRI, the values for the protein stability index in the series on Saccharomyces cerevisiae [1] and with Saccharomyces cerevisiae [2] were 0.155 and 0.32, respectively.

On to RVTRLPAIYFRI, for which the protein stability index came out at 0.217 in the series on Saccharomyces cerevisiae [1] and 0.636 in the series on Saccharomyces cerevisiae [2].

Consider RVTRLTAIYFRI, for which the protein stability index in the series with Saccharomyces cerevisiae [1] was determined as 0.172; with Saccharomyces cerevisiae [2], 0.351.

As for RVTRLYAIYFRI, the protein stability index with Saccharomyces cerevisiae [1] came out at 0.134; in the series with Saccharomyces cerevisiae [2], 0.294.

TSLRVLLPLYFR: the protein stability index is 0.294 in the series on Saccharomyces cerevisiae [1] and 0.654 in the series with Saccharomyces cerevisiae [2].

With WLVSLPILLFFR, the protein stability index was found to be 0.105 in the series on Saccharomyces cerevisiae [1] and 0.518 with Saccharomyces cerevisiae [2].
